Consider 7 variants from IntAct's records for PubMed 23328395.

B1: Antiviral innate immune response receptor RIG-I (Mus musculus), Q6Q899-1 (parent)
chain: MTAEQRQNLQAFRDYIKKILDPTYILSYMSSWLEDEEVQYIQAEKNNKGPMEAASLFLQYLLKLQSEGWFQAFLDALYHAGYCGLCEAIESWDFQKIEKLEEHRLLLRRLEPEFKATVDPNDILSELSECLINQECEEIRQIRDTKGRMAGAEKMAECLIRSDKENWPKVLQLALEKDNSKFSELWIVDKGFKRAESKADEDDGAEASSIQIFIQEEPECQNLSQNPGPPSEASSNNLHSPLKPRNYQLELALPAKKGKNTIICAPTGCGKTFVSLLICEHHLKKFPCGQKGKVVFFANQIPVYEQQATVFSRYFERLGYNIASISGATSDSVSVQHIIEDNDIIILTPQILVNNLNNGAIPSLSVFTLMIFDECHNTSKNHPYNQIMFRYLDHKLGESRDPLPQVVGLTASVGVGDAKTAEEAMQHICKLCAALDASVIATVRDNVAELEQVVYKPQKISRKVASRTSNTFKCIISQLMKETEKLAKDVSEELGKLFQIQNREFGTQKYEQWIVGVHKACSVFQMADKEEESRVCKALFLYTSHLRKYNDALIISEDAQMTDALNYLKAFFHDVREAAFDETERELTRRFEEKLEELEKVSRDPSNENPKLRDLYLVLQEEYHLKPETKTILFVKTRALVDALKKWIEENPALSFLKPGILTGRGRTNRATGMTLPAQKCVLEAFRASGDNNILIATSVADEGIDIAECNLVILYEYVGNVIKMIQTRGRGRARDSKCFLLTSSADVIEKEKANMIKEKIMNESILRLQTWDEMKFGKTVHRIQVNEKLLRDSQHKPQPVPDKENKKLLCGKCKNFACYTADIRVVETSHYTVLGDAFKERFVCKPHPKPKIYDNFEKKAKIFCAKQNCSHDWGIFVRYKTFEIPVIKIESFVVEDIVSGVQNRHSKWKDFHFERIQFDPAEMSV
B2: Non-structural protein V (measles virus (strai), P0C774 (parent)
chain: MAEEQARHVKNGLECIRALKAEPIGSLAVEEAMAAWSEISDNPGQDRATCKEEEAGSSGLSKPCLSAIGSTEGGAPRIRGQGSGESDDDAETLGIPSRNLQASSTGLQCYHVYDHSGEAVKGIQDADSIMVQSGLDGDSTLSGGDDESENSDVDIGEPDTEGYAITDRGSAPISMGFRASDVETAEGGEIHELLKLQSRGNNFPKLGKTLNVPPPPNPSRASTSETPIKKGHRREIGLIWNGDRVFIDRWCNPMCSKVTLGTIRARCTCGECPRVCEQCRTDTGVDTRIWYHNLPEIPE
partner: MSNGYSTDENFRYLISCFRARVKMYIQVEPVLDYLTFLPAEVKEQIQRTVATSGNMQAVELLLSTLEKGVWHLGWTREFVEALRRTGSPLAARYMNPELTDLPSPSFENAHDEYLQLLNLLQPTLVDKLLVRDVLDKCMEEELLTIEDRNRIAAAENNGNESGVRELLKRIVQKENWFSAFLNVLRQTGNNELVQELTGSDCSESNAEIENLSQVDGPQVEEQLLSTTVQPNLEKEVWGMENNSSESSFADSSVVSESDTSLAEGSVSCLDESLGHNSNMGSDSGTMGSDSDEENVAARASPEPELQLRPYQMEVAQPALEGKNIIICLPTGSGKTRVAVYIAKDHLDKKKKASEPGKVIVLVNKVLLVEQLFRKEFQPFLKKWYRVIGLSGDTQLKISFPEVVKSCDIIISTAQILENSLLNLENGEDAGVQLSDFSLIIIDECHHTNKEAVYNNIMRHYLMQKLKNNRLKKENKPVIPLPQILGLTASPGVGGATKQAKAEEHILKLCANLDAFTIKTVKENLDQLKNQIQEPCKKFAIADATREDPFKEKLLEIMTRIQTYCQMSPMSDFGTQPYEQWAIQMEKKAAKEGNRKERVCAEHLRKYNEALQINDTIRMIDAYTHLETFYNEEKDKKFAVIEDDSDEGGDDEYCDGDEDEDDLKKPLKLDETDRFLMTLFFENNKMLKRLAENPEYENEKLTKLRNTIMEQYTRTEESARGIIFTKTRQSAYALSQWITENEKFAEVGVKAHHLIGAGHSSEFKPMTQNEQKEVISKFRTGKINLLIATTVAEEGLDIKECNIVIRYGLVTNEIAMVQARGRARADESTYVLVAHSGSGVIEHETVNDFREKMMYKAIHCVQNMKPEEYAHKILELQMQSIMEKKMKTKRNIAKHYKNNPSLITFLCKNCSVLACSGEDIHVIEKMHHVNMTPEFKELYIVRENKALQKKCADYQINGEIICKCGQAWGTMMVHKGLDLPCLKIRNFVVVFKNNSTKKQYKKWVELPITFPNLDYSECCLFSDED
B3: Interferon-induced helicase C domain-containing protein 1 (Mus musculus), Q8R5F7-1 (parent)
chain: MSIVCSAEDSFRNLILFFRPRLKMYIQVEPVLDHLIFLSAETKEQILKKINTCGNTSAAELLLSTLEQGQWPLGWTQMFVEALEHSGNPLAARYVKPTLTDLPSPSSETAHDECLHLLTLLQPTLVDKLLINDVLDTCFEKGLLTVEDRNRISAAGNSGNESGVRELLRRIVQKENWFSTFLDVLRQTGNDALFQELTGGGCPEDNTDLANSSHRDGPAANECLLPAVDESSLETEAWNVDDILPEASCTDSSVTTESDTSLAEGSVSCFDESLGHNSNMGRDSGTMGSDSDESVIQTKRVSPEPELQLRPYQMEVAQPALDGKNIIICLPTGSGKTRVAVYITKDHLDKKKQASESGKVIVLVNKVMLAEQLFRKEFNPYLKKWYRIIGLSGDTQLKISFPEVVKSYDVIISTAQILENSLLNLESGDDDGVQLSDFSLIIIDECHHTNKEAVYNNIMRRYLKQKLRNNDLKKQNKPAIPLPQILGLTASPGVGAAKKQSEAEKHILNICANLDAFTIKTVKENLGQLKHQIKEPCKKFVIADDTRENPFKEKLLEIMASIQTYCQKSPMSDFGTQHYEQWAIQMEKKAAKDGNRKDRVCAEHLRKYNEALQINDTIRMIDAYSHLETFYTDEKEKKFAVLNDSDKSDDEASSCNDQLKGDVKKSLKLDETDEFLMNLFFDNKKMLKKLAENPKYENEKLIKLRNTILEQFTRSEESSRGIIFTKTRQSTYALSQWIMENAKFAEVGVKAHHLIGAGHSSEVKPMTQTEQKEVISKFRTGEINLLIATTVAEEGLDIKECNIVIRYGLVTNEIAMVQARGRARADESTYVLVTSSGSGVTEREIVNDFREKMMYKAINRVQNMKPEEYAHKILELQVQSILEKKMKVKRSIAKQYNDNPSLITLLCKNCSMLVCSGENIHVIEKMHHVNMTPEFKGLYIVRENKALQKKFADYQTNGEIICKCGQAWGTMMVHKGLDLPCLKIRNFVVNFKNNSPKKQYKKWVELPIRFPDLDYSEYCLYSDED
B4: Non-structural protein V (Simian virus 5 (strain W3)), P11207 (parent)
chain: MDPTDLSFSPDEINKLIETGLNTVEYFTSQQVTGTSSLGKNTIPPGVTGLLTNAAEAKIQESTNHQKGSVGGGAKPKKPRPKIAIVPADDKTVPGKPIPNPLLGLDSTPSTQTVLDLSGKTLPSGSYKGVKLAKFGKENLMTRFIEEPRENPIATSSPIDFKRGRDTGGFHRREYSIGWVGDEVKVTEWCNPSCSPITAAARRFECTCHQCPVTCSECERDT
partner: B3 chain
B5: Interferon-induced helicase C domain-containing protein 1 (Homo sapiens), Q9BYX4 (parent)
chain: B2 partner
partner: B2 chain
B6: Antiviral innate immune response receptor RIG-I (Homo sapiens), O95786-1 (parent)
chain: MTTEQRRSLQAFQDYIRKTLDPTYILSYMAPWFREEEVQYIQAEKNNKGPMEAATLFLKFLLELQEEGWFRGFLDALDHAGYSGLYEAIESWDFKKIEKLEEYRLLLKRLQPEFKTRIIPTDIISDLSECLINQECEEILQICSTKGMMAGAEKLVECLLRSDKENWPKTLKLALEKERNKFSELWIVEKGIKDVETEDLEDKMETSDIQIFYQEDPECQNLSENSCPPSEVSDTNLYSPFKPRNYQLELALPAMKGKNTIICAPTGCGKTFVSLLICEHHLKKFPQGQKGKVVFFANQIPVYEQQKSVFSKYFERHGYRVTGISGATAENVPVEQIVENNDIIILTPQILVNNLKKGTIPSLSIFTLMIFDECHNTSKQHPYNMIMFNYLDQKLGGSSGPLPQVIGLTASVGVGDAKNTDEALDYICKLCASLDASVIATVKHNLEELEQVVYKPQKFFRKVESRISDKFKYIIAQLMRDTESLAKRICKDLENLSQIQNREFGTQKYEQWIVTVQKACMVFQMPDKDEESRICKALFLYTSHLRKYNDALIISEHARMKDALDYLKDFFSNVRAAGFDEIEQDLTQRFEEKLQELESVSRDPSNENPKLEDLCFILQEEYHLNPETITILFVKTRALVDALKNWIEGNPKLSFLKPGILTGRGKTNQNTGMTLPAQKCILDAFKASGDHNILIATSVADEGIDIAQCNLVILYEYVGNVIKMIQTRGRGRARGSKCFLLTSNAGVIEKEQINMYKEKMMNDSILRLQTWDEAVFREKILHIQTHEKFIRDSQEKPKPVPDKENKKLLCRKCKALACYTADVRVIEECHYTVLGDAFKECFVSRPHPKPKQFSSFEKRAKIFCARQNCSHDWGIHVKYKTFEIPVIKIESFVVEDIATGVQTLYSKWKDFHFEKIPFDPAEMSK
partner: B2 chain

The variants in the first assay derive from B1. The settings on record: with v_piv5 P/V.
L715R;E717G: the “effect of a mutation on the interaction” value is given as “increasing interaction strength”.

In another assay the parent is B2. The note with it: with ifih1_human IFIH1, Q9BYX4.
For the variant E235A, the “effect of a mutation on the interaction” value was “decreasing interaction strength”.

Another assay covers variants of B3. The settings on record: with v_piv5 P/V.
As to R806L, the “effect of a mutation on the interaction” value was “disrupting interaction strength”.

Variants of B4 are the subject of another assay. The note with it: with Ifih1, Q8R5F7-1.
For E174A, the “effect of a mutation on the interaction” value is reported as “decreasing interaction strength”.

Variants of B5 are the subject of the next assay. The note with it: with v_measc P/V.
As to R806L, the “effect of a mutation on the interaction” value is “decreasing interaction strength”.

The variants in a further assay derive from B6. The settings on record: with v_measc P/V.
With L714R;E716G, the “effect of a mutation on the interaction” value is recorded as “increasing interaction strength”. On the same count and under the same terms, the entry for L714R is “increasing interaction strength”.
